Data as given in patent publication US20100075297A1, “PHOTOSENSITIVE POLYPEPTIDE AND METHODS OF THEIR PRODUCTION AND USE” (priority 2006, published 2010).
“Also recorded” adds a separate entry of the source. *1 amine or outer side, *2 acyl side, *3 side chain or, on linkers, in order; H or OH if unused. Where a SMILES comes first, the peptide text is derived from it. [ ]: non-standard residue; d: D form. The star is where a group is joined. X2 = COc1cc(CN([C@@H](Cc2ccc(OP(=O)(O)O)cc2)C(=O)[*:2])[*:1])c([N+](=O)[O-])cc1OC; Gly(N-Dmnb) = COc1cc(CNCC(=O)O)c([N+](=O)[O-])cc1OC; X1 = CN(C)c1ccc(-c2cnc(-c3ccc(S(=O)(=O)*)cc3)o2)cc1; pY = N[C@@H](Cc1ccc(OP(=O)(O)O)cc1)C(=O)O; coumarin = not defined here; Dab = NCC[C@H](N)C(=O)O

Experiments:
[1] = biological target: GST-Lck-SH2 (UniProt P06239); assay: fluorescence, 3 µM peptide A with 5 µM GST-Lck-SH2 and 32 µM unphotolysed peptide 4, t=0 min
Sequence of GST-Lck-SH2 (P06239 127-224 limits assumed): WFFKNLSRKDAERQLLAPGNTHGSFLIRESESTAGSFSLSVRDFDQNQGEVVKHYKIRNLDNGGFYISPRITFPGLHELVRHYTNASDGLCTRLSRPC

[2] = biological target: GST-Lck-SH2 (UniProt P06239); assay: fluorescence of dapoxyl peptide A with Lck SH2 domain
[3] = biological target: T1, Lck SH2 domain (Homo sapiens, UniProt P06239); assay: Photolysis of caged peptide 4, read out by displacement of sensor A from the Lck SH2 domain; assay type: binding
T1 construct: made in house
T1 sequence (P06239 127-224 limits assumed): as above
Description: Experiments were conducted using 3 μM peptide A, 20 μM DTT, 5 μM GST-Lck-SH2 (in 10% glycerol), peptide 4 (32 μM) in 33.3 mM Tris buffer (pH 7.5) and a total assay volume 150 μL. The fluorescence of the solution was monitored on a Photon Technology QM-1 spectrofluorimeter at 30° C. at λex=395 nm and λem=535 nm. Caged peptide (4) was irradiated using an Oriel Mercury Arc Lamp (Model 69907) equipped with a 360 nm colored glass filter (300-400 nm band pass) and an IR filter for various time periods (0-30 min).
An aliquot from each irradiation time period was added to the assay solution. A decrease in fluorescence intensity is indicative of displacement of the SH2 domain sensor A from the SH2 domain by uncaged peptide (6) (see FIGS. 7 and 8). An analogous set of experiments was performed with peptide 5. The formation of uncaged peptide 6 from caged peptides 4 and 5 was confirmed by analytical HPLC (comparison with the retention time of peptide 6 prepared by solid phase peptide synthesis) and by mass spectrometry.

[4] = biological target: T1, Lck SH2 domain; assay: Competition assay with dapoxyl-labeled sensor peptide A for Kd at the Lck SH2 domain; assay type: binding
Description: By contrast, the difference in affinity between 5 (43±10 μM) and 6 is somewhat more modest. The caged derivative 4 is converted to the high affinity form 6 upon photolysis. Longer photolysis times generate larger yields of the active peptide 6 (see “Experimental procedures” section below). The latter provides a straightforward means to deliver desired quantities of the active species.
The competition assay schematically illustrated in FIG. 7 was employed to determine Kds for peptides 4, 5, and 6. Experiments were conducted using 3 μM peptide A, 20 μM DTT, 5 μM GST-Lck-SH2 (in 10% glycerol), and 33.3 mM of Tris buffer (pH 7.5) in a total assay volume of 150 μL. The fluorescence of the solution was monitored on a Photon Technology QM-1 spectrofluorimeter at 30° C. at λex=395 nm and λem=535 nm. The fluorescence of the peptide A solution was measured in the presence of variable concentrations of peptides 4, 5, or 6. Control assays in the absence of GST-Lck-SH2 were also performed at the same concentrations. The following Kdx values were obtained: peptide 4 (127±6 μM), peptide 5 (43±10 μM), and peptide 6 (2.6±0.2).
and [St]=total [A], Fx=fluorescence at a given concentration of peptide X (i.e. 4, 5, or 6), Fmax=fluorescence in the absence of peptide X, F0=fluorescence in the absence of Lck-SH2 domain, Kd=binding constant of A/Lck-SH2 domain, [Pt]=total [Lck-SH2], [P]=uncomplexed [Lck-SH2], [Xt]=total [4, 5, or 6], [PX]=[4, 5, or 6/Lck-SH2 complex], [SP]=[A/Lck-SH2 complex], Kdx=dissociation constant of peptide 4, 5, or 6/Lck-SH2 domain complex.

[5] = biological target: T2, α-chymotrypsin (Bos taurus, UniProt P00766); assay: Chymotrypsin continuous fluorescence substrate assay; assay type: biochemical
T2 construct: purchased Fisher or Aldrich (general materials statement only)
Description: The peptide 9 stock solution contained 5% DMSO and the assay solution contained less than 1% DMSO. The reaction was monitored on a Photon Technology QM-1 spectrofluorimeter at 30° C. using a λex=380 nm and a λem=460 nm.
Assays were conducted using 25 μM light exposed caged peptide 10 in 50 mM Tris buffer (pH 8.0), and 100 mM NaCl, 5 mM CaCl2, and 0.01% Tween-20 to which α-chymotrypsin was added to initiate the reaction. The fluorescence of the solution was monitored on a Photon Technology QM-1 spectrofluorimeter at 30° C. at λex=380 nm and λem=460 nm. Caged peptide 10 was irradiated using an Oriel Mercury Arc Lamp (Model 69907) equipped with a 360 nm colored glass filter (300-400 nm band pass) and an IR filter for various time periods (0, 5, 10, 15, and 20 min).

[6] = test system: Ac-Gly-Gly-Gly-N(DMNB)Phe-coumarin (10)
[7] = test system: Ac-Gly-Gly-Gly-Phe-coumarin (9)
[8] = test system: H2N-Leu-Arg-Arg-Ala-N(DMNB)Ser-Leu-Gly-NH2 (12)
[9] = test system: H2N-Leu-Arg-Arg-Ala-Ser-Leu-Gly-NH2 (11)
[10] = biological target: T3, cAMP-dependent protein kinase (PKA) catalytic subunit (Homo sapiens, UniProt P17612); assay: PKA [γ-33P]ATP radioactive phosphorylation assay; assay type: biochemical
T3 construct: made in house
Description: PKA assays were performed in triplicate. 20 μL of a 30 μM solution of 12, which had been photolyzed for different time periods (5, 10, 15, 20, 25, 30 min), was added to each well of 96 multi-well assay plate containing 20 μL assay buffer [100 mM MOPS, 150 mM KCl, 12.5 mM MgCl2 and 150 μM cold ATP supplemented with 70-163 μCi/well [γ^−33P]ATP for radioactive detection]. 10 μL enzyme diluted buffer containing 100 mM MOPS (pH 7.1), 0.125 mg/mL bovine serum albumin, and 8 nM PKA catalytic subunit were added to initiate the reaction. Total reaction volume was 50 μL. After a 12-min incubation time at 30° C., 100 μL of 6% phosphoric acid was added to each well to stop the reaction (total volume: 150 μL). Following an additional 5 min incubation period at ambient temperature, 75 μL from each reaction well was transferred into each well of a Unifilter (P81 cellulose phosphate paper) assay plate. Each well was washed four times with 0.1% phosphoric acid in water. Scintillation solution was added to each well and ^33P-incorporation measured by scintillation counting with a MicroBeta™ TriLux & MicroBeta JET (Perkin Elmer). The formation of the photouncaged peptide was confirmed by ESI mass spectrometry.
Assays were performed as described above, except that the enzymatic reaction was stopped at different time points (2, 4, 6, 8, 10, 12, 14 min) by adding 6% phosphoric acid.

[11] = 10 nM α-chymotrypsin, Tris pH 8.0, 30° C.

## Ac-pTyr-Gly-Glu-Ile-Dab(Dapoxyl)-Ala-NH2 (A) (peptide)
[1]
  fold enhancement in fluorescence intensity relative to A in the absence of Lck-SH2 domain: 4 fold
[2]
  fold increase in fluorescence upon binding: 10 fold

## CC[C@H](C)[C@H](NC(=O)[C@H](CCC(=O)O)NC(=O)CNC(=O)[C@H](Cc1ccc(OP(=O)(O)O)cc1)NC(C)=O)C(=O)N[C@@H](CCNS(=O)(=O)c1ccc(-c2ncc(-c3ccc(N(C)C)cc3)o2)cc1)C(=O)N[C@@H](C)C(N)=O [peptide A, Ac-pTyr-Gly-Glu-Ile-Dab(Dapoxyl)-Ala-NH2] (Ac-[pY]GEI[Dab](X1)A-NH2)
[3]; t=0 min photolysis, 3 μM A, 5 μM GST-Lck-SH2, 32 μM peptide 4
  enhancement in fluorescence intensity relative to A in the absence of Lck-SH2 domain: 4 fold

## CC[C@H](C)[C@H](NC(=O)[C@H](CCC(=O)O)NC(=O)CNC(=O)[C@H](Cc1ccc(OP(=O)(O)O)cc1)N(Cc1cc(OC)c(OC)cc1[N+](=O)[O-])C(C)=O)C(=O)N[C@@H](CCNC(C)=O)C(=O)N[C@@H](C)C(N)=O [peptide 5, Ac-N(DMNB)pTyr-Gly-Glu-Ile-Dab(Ac)-Ala-NH2] (Ac-[X2]GEI[Dab](Ac)A-NH2)
[4]
  Kd: 43 ± 10 µM

## Ac-Gly-Gly-Gly-N(DMNB)Phe-coumarin [peptide 10]
[5]; photolysis 5, 10, 15, 20 min
  activity as chymotrypsin substrate after photolysis: increasing photolysis times converts increasing amounts of caged analogue 10 to the active substrate 9
[5]; without photolysis, 25 μM caged peptide
  activity as chymotrypsin substrate: essentially inactive; also recorded: not hydrolyzed

## α-chymotrypsin
[6]
  hydrolysis by chymotrypsin, continuous fluorescence assay: the caged derivative 10 is essentially inactive as a chymotrypsin substrate
[7]
  Km: Km=6.3±1.3 µM
  Vmax: Vmax=7.2µmol/min-mg

## Ac-Gly-Gly-Gly-Phe-coumarin (Ac-GGGF-coumarin; reading uncertain; also: printed as Ac-Gly-Gly-Gly-Phe-coumarin) [peptide 9]
[5]; [11]
  Km: 6.3 ± 1.3 µM
  Vmax: 7.2 µmol/min/mg
[5]; λex=380 nm, λem=460 nm
  enhancement in fluorescence upon complete hydrolysis: ~6 fold

## CC[C@H](C)[C@H](NC(=O)[C@H](CCC(=O)O)NC(=O)CNC(=O)[C@H](Cc1ccc(OP(=O)(O)O)cc1)NC(C)=O)C(=O)N[C@@H](CCNC(C)=O)C(=O)N[C@@H](C)C(N)=O [peptide 6, Ac-pTyr-Gly-Glu-Ile-Dab(Ac)-Ala-NH2] (Ac-[pY]GEI[Dab](Ac)A-NH2)
[4]
  Kd: 2.6 ± 0.2 µM

## CC[C@H](C)[C@H](NC(=O)[C@H](CCC(=O)O)NC(=O)CN(Cc1cc(OC)c(OC)cc1[N+](=O)[O-])C(=O)[C@H](Cc1ccc(OP(=O)(O)O)cc1)NC(C)=O)C(=O)N[C@@H](CCNC(C)=O)C(=O)N[C@@H](C)C(N)=O [peptide 4, Ac-pTyr-N(DMNB)Gly-Glu-Ile-Dab(Ac)-Ala-NH2] (Ac-[pY][Gly(N-Dmnb)]EI[Dab](Ac)A-NH2)
[3]; irradiation 0-30 min, 300-400 nm band pass, 32 μM peptide 4
  effect of photolysis of the caged peptide in the competition assay: complete displacement of A from the Lck SH2 domain
[4]
  Kd: 127 ± 6 µM

## PKA catalytic subunit
[8]
  PKA-catalyzed phosphorylation, [γ-33P]ATP assay: In the absence of photolysis, peptide 12 fails to serve as a substrate
[9]
  PKA-catalyzed phosphorylation, [γ-33P]ATP assay: photolysis of 12 generates the active substrate 11 (as demonstrated by mass spectrometry) that, upon addition of PKA, furnishes the phosphorylated product

## H2N-Leu-Arg-Arg-Ala-N(DMNB)Ser-Leu-Gly-NH2 [peptide 12]
[10]; in the absence of photolysis
  activity as PKA substrate (phosphorylation): fails to serve as a substrate; also recorded: not phosphorylated
[10]; photolysis 5-30 min
  activity as PKA substrate after photolysis: generates the active substrate 11
